System: MS2 coat protein
Experiment: apparent KD of MS2 coat protein; designed switch direction (-1 OFF switch, 1 ON switch): -1; higher = weaker reporter binding
Procedure, shortened: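 Designed RNA switches were transcribed on Illumina chips by stalled E. coli RNA polymerase and titrated with SNAP-549-labelled MS2 coat protein from 0.7 or 1.5 nM, doubling to 3 µM. Step length ran from 0.8–1.5 h at the lowest concentration to 10–20 min at the highest. The apparent KD is the median over clusters for each design, from curve-fitted normalised cluster fluorescence.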

[1] = Eterna round: R95, input ligand: FMN 200 uM
[2] = Eterna round: R95, input ligand: microRNA oligo, concentration not stated
[3] = Eterna round: R95, input ligand: none
[4] = input ligand: microRNA oligo, concentration not stated

Sequence	apparent KD of MS2 coat protein [1] [nM]	apparent KD of MS2 coat protein [2] [nM]	apparent KD of MS2 coat protein [3] [nM]	apparent KD of MS2 coat protein (input ligand: FMN 200 uM) [nM]	apparent KD of MS2 coat protein [4] [nM]	apparent KD of MS2 coat protein (input ligand: none) [nM]
GAAAAGGUAGGAUAUACGAUAAGAAAGGGUAGAGAAGAAACACAUGAGGAUCACCCAUGUAGAAGGACCAAAAG [salish99_ex2_r3_100] (puzzle: Exclusion 2)	146	23.6	33.2	–	–	–
CCAUGUUAGCAGGAUAUGCCAUUAUUCCUUUACGCAGAAGGGCUUACAUGAGGAUCACCCAUGUAACAUUUCAU [JR_E6_Sub083] (puzzle: Exclusion 6)	–	14.1	–	–	–	–
CGGUGUAACAGAGGAUAUCAGCGCAACUGACGAUGAGAAGGCUGACAUGAGGAUCACCCAUGUGAUUUCUCAAUAUUAUACAUC [Prohibition 88 - Jieux - Exclusion NG 1] (Eterna round: R96, puzzle: Exclusion NG 1)	–	–	–	371	72.3	100
UCACGGGACUAAGGAUAUAUGUGUACCAUUUUCAUAGAAGGUAGAAUGUUUGAUCAUAAACUAAACAUGAGGAUCACCCAUGUU [JR_ExcNG1_Sub091] (Eterna round: R96, puzzle: Exclusion NG 1)	–	–	–	–	20.6	–
GUAAACGAAGAGGAUAUAUGAUAUCAAAGCUUCAUAGAAGGCUUCACAUGAGGAUCACCCAUGUGAUCUUCAAA [Mat - Exclusion 6 - JL Mod - D26] (Eterna round: R97, puzzle: Exclusion 6)	–	–	–	203	–	38.1
CCGUUCCGUGUAGGAUAUUGGCCCACCACGGGCCGAGAAGGACAUGAGGAUCACCCAUGUAUGCUAUUAUCGCGCGUGGCGCCC [Design 100] (Eterna round: R96, puzzle: Exclusion NG 1)	–	–	–	148	14.8	24.2
AGUAACCGUCACGAAAGUGAUGGUUACGCAAGCAAAUGUACAUGAGGAUCACCCAUGUCCUCAUUUGCUCGUCUUAU [Sensor 3 - 43] (puzzle: Sensor v3, turn-off variant 2)	19.6	362	17.7	–	–	–
AGCAAAUCAGGAUAUGUACUGGACGACAUGAGGAUCACCCAUGUGAUUCAGUGCGCGAGAACAGAAGGGAUUCGCU [Isor] (puzzle: Exclusion 5)	–	15.4	–	–	–	–
GAGUGACAUGAGGAUCACCCAUGUGAGGAUAUCGGACGGACCAAAUUAACAAUAUUUGCGAGAAGGCACAUCGG [Exclusion 1 V17] (puzzle: Exclusion 1)	–	82.2	–	–	–	–
AAGGGUAAAGGAUAUACAUGAGGAUCACCCAUGUUGAGGAAGGUUAGAUGAGGAGUAAGUAGAAGGUUAGACGA [JR_Exclu3_Sub089] (puzzle: Exclusion 3)	57.1	52.6	69.6	–	–	–
UGAGAACAUGAGGAUCACCCAUGUAAGGAUAUGCGAAGAGUUCGGAGAGGUUGAGGAGGCAGAAGGUACGGGAG [JR_Exclu1_Sub044] (puzzle: Exclusion 1)	37.5	32.5	49.8	–	–	–
GUGGGUUACAUGAGGAUCACCCAUGUAGAGUGGGAAGAGAGAUAGGAUAUGAUGUGAGAAUUAUAUCAGAAGGAUCGAGACUCG [AK ExNG3-2.4] (Eterna round: R96, puzzle: Exclusion NG 3)	–	–	–	268	136	214
CAUACAGUAGUUAGGAUAUUGCAACACACACGGAACGAGAAGGGACAUGAGGAUCACCCAUGUAGACUGUAAAG [EX-4 Malc #6] (puzzle: Brourd's mod of Exclusion 4)	20.7	27.2	24.5	–	–	–
GCAGCAUAGUGUAAUAAACACAUACAUGAGGAUCACCCAUGUGAGGAUAUGGACUGGAUUACAGUCCAGAAGGCACAAAGCUGC [Zipper Style 1] (Eterna round: R96, puzzle: Exclusion NG 3)	–	–	–	18.7	15.9	17.8
AGAGUGCUGCGAGGAUAUACAUGAGGAUCACCCAUGUAUUAGUGUGAGGCAAAGCCUCACACAAUGUAGAAGGCGCAGUACUCA [Mat - Exclusion NG 2 - Mod of JL - D9] (Eterna round: R96, puzzle: Exclusion NG 2)	–	–	–	8.83	12.2	18.4
GAUCUACAUGAGGAUCACCCAUGUAAGGAUAUCUACAUUGAAGCUUCGGCUUCAAUGUAGAGAAGGUACAAUUA [E1/10-B1] (Eterna round: R97, puzzle: Exclusion 1)	–	–	–	40.7	–	27.9
UGAUCCAAAGAGGAUAUGUCGGGCCAGGGCCCAACAGAAGGCUUUACAUGAGGAUCACCCAUGUUCGCGACAUG [EX6 A.22] (Eterna round: R97, puzzle: Exclusion 6)	–	–	–	481	–	558
AAGCUGUGAGGAUAUACAUGAGGAUCACCCAUGUUAAGGAAGUCUUGGUUAAUUUGGUGUAGAAGGCGCUUAUU [JR_Ex3_Sub018] (Eterna round: R97, puzzle: Exclusion 3)	–	–	–	32.6	–	32.4

Sequence	apparent KD of MS2 coat protein [1] [nM]	apparent KD of MS2 coat protein [2] [nM]	apparent KD of MS2 coat protein [3] [nM]	apparent KD of MS2 coat protein (input ligand: FMN 200 uM) [nM]	apparent KD of MS2 coat protein [4] [nM]	apparent KD of MS2 coat protein (input ligand: none) [nM]
GGAUUCCAGUGAGGAUAUCCAAAUAAAAGCCAUGGAGAAGGCACAUGAGGAUCACCCAUGUAGGGCAAUAACAGCGAACGCUGC [Erenlege] (Eterna round: R96, puzzle: Exclusion NG 1)	–	–	–	73	43.3	30.8
GGGUUUGGAGGAUAUACAUGAGGAUCACCCAUGUACCCGGGCCCUAUUGGGUUUGGGUGUAGAAGGCCGGGCCC [-33.9, -31.3 kcal, A 19%, 5bbis,5b] (Eterna round: R97, puzzle: Exclusion 3)	–	–	–	20.4	–	17.7
GAACUGAGGCAAAGCUUUAGUCGUACAUGAGGAUCACCCAUGUAGGAUAUGGUAGGCAAAGCUUACCAGAAGGACAGAGUGAUC [Mat - Exclusion NG 3 - Mod of JL - D60] (Eterna round: R96, puzzle: Exclusion NG 3)	–	–	–	498	260	257
UAUUAGCGAGGAUAUACAUGAGGAUCACCCAUGUGAUCCUAAGGCUGAUAAAGCCUAUGUAGAAGGCGCAAAAG [jl-ex3.4.51 ViennaUCT mod] (Eterna round: R97, puzzle: Exclusion 3)	–	–	–	227	–	421
UAUUAGUAAGGAUAUCCCACGUAGGACGAAAGUCCUACGUGGGAGAAGGUACAUGAGGAUCACCCAUGUCUAUU [Mod of Fisker 12 - Jieux - Exclusion 4] (Eterna round: R97, puzzle: Exclusion 4)	–	–	–	20.4	–	18.7
CCGUUGUCAGGAUAUCGUGCAUACAACGAAAGUUCUAUGUGCGAGAAGGGACAUGAGGAUCACCCAUGUUACGG [Omei Ex4 A1] (Eterna round: R97, puzzle: Exclusion 4)	–	–	–	90.3	–	41.2
CACCGUAACAGAGGAUAUGAUACAUGAGGAUCACCCAUGUAAUAAAUGAGAAUUUCGAAUGUACCUCAGAAGGCUGAAACCGGC [Ostricism 81 - Jieux - Exclusion NG 2] (Eterna round: R96, puzzle: Exclusion NG 2)	–	–	–	115	38.5	48
GAUUUAGAGCAGGAUAUCAUAGAAUUAUAUGAAUGAGAAGGGCUCACAUGAGGAUCACCCAUGUGGUCCUAGAU [JL Dibiri mod 22] (puzzle: Exclusion 6)	–	22.8	–	–	–	–
UUUACAAGCUAAAGAUCCCACAUGAGGAUCACCCAUGUUGCUGCCGGUGACGGUAGCAUAACUUUUGCUCGUCUUAU [JL TOV1 3.59] (Eterna round: R97, puzzle: Sensor, turn-off variant 1)	–	–	–	278	–	342
UUUUAACAUGAGGAUCACCCAUGUGAGGAUAUCGAAAUUUAUAUUAAUAUUUAUUUAUCGAGAAGGCACAUUUU [JMF 64] (puzzle: Exclusion 1)	–	120	–	–	–	–
AGGUGUGAAGGAUAUAGCGUGGUCGACAUGAGGAUCACCCAUGUGAGAUGGUCGCCGGGUCUAGAAGGUUAGCUAA [Eternabot (L1) Solution 97] (Eterna round: R97, puzzle: Exclusion 5)	–	–	–	82.5	–	97.2
GCAUGCUAUGUCAGGAUAUACCUCUGGAUACAUAGGUAGAAGGGACAUGAGGAUCACCCAUGUCCUAAACAUGC [Fiskers BMX 4 - 26] (puzzle: Brourd's mod of Exclusion 4)	–	11.4	–	–	–	–
UUGUUGUGUGUAGGAUAUGCGUGUUAUUAUUAUGCAGAAGGACAUGAGGAUCACCCAUGUGUAUUGUUAUUAUAUAUUAUAUAU [Title] (Eterna round: R96, puzzle: Exclusion NG 1)	–	–	–	–	15.6	–
AAGUACCGUCACGAUAGUGAUGGUACAACAAGUAAAUGUACAUGAGGAUCACCCAUGUCCUCUUUUGCUCGUCUUAU [Sensor 3 - 91] (puzzle: Sensor v3, turn-off variant 2)	144	33	166	–	–	–
GCAUCCAAUGUGAGGAUAUACCUCUGGAUACAUAGGUAGAAGGCACAUGAGGAUCACCCAUGUUCCUAGGAUGC [Fiskers BMX 4 - 31] (puzzle: Brourd's mod of Exclusion 4)	–	32.9	–	–	–	–
AACGAGGCAGGAUAUACAUGAGGAUCACCCAUGUGCUUGCAUGGCGUGGGACGUCAACGUAGAAGGGCCAUGCC [EX3 #67] (Eterna round: R97, puzzle: Exclusion 3)	–	–	–	43.1	–	45.6
GAGAACGUAGGAUAUACAUGAGGAUCACCCAUGUGAGGAAGGAGUAGGAAGAGUGGAAGUAGAAGGACGAAGAG [JR_Exclu3_Sub071] (puzzle: Exclusion 3)	29.3	36.3	43.8	–	–	–

Source: the supplement of paper PMC9170038
